The values that follow come from patent US20210179693A1 (Xencor, published 2021).

B1: anti-VEGF IgG2 N434S (antibody)
heavy: EVQLVESGGGLVQPGGSLRLSCAASGYTFTNYGMNWVRQAPGKGLEWVGWINTYTGEPTYAADFKRRFTFSLDTSKSTAYLQMNSLRAEDTAVYYCAKYPHYYGSSHWYFDVWGQGTLVTVSSASTKGPSVFPLAPCSRSTSESTAALGCLVKDYFPEPVTVSWNSGALTSGVHTFPAVLQSSGLYSLSSVVTVPSSNFGTQTYTCNVDHKPSNTKVDKTVERKCCVECPPCPAPPVAGPSVFLFPPKPKDTLMISRTPEVTCVVVDVSHEDPEVQFNWYVDGVEVHNAKTKPREEQFNSTFRVVSVLTVVHQDWLNGKEYKCKVSNKGLPAPIEKTISKTKGQPREPQVYTLPPSREEMTKNQVSLTCLVKGFYPSDIAVEWESNGQPENNYKTTPPMLDSDGSFFLYSKLTVDKSRWQQGNVFSCSVMHEALHSHYTQKSLSLSPGK
light: not shown
B2: anti-VEGF IgG2 N434V (antibody)
heavy: B1 heavy with S436V
light: not shown
notes: also called 434V in IgG2
B3: anti-VEGF IgG2 N434P (antibody)
heavy: B1 heavy with S436P
light: not shown
B4: anti-VEGF IgG2 N434E (antibody)
heavy: B1 heavy with S436E
light: not shown
B5: anti-VEGF IgG2 N434T (antibody)
heavy: B1 heavy with S436T
light: not shown
B6: anti-VEGF IgG2 N434K (antibody)
heavy: B1 heavy with S436K
light: not shown
B7: anti-VEGF IgG2 N434D (antibody)
heavy: B1 heavy with S436D
light: not shown
B8: anti-VEGF IgG2 N434R (antibody)
heavy: B1 heavy with S436R
light: not shown
B9: anti-VEGF IgG2 M428L/N434S (antibody)
heavy: B1 heavy with M430L
light: not shown

Where a chain is given by its changes, count along the chain named. Names and notes keep the numbering of the source. A value given as a limit tells only on which side of the number the result lay.

T1 sequence (P55899 24-297 limits assumed, chain 1 of 2): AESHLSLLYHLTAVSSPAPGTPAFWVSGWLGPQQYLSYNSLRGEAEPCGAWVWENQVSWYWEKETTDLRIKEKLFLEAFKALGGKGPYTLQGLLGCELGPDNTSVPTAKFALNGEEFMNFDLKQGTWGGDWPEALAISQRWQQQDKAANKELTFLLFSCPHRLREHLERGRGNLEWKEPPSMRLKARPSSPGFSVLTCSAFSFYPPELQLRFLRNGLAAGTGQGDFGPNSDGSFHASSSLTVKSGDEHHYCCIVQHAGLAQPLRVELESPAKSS
T1 sequence (P61769 21-119 limits assumed, chain 2 of 2): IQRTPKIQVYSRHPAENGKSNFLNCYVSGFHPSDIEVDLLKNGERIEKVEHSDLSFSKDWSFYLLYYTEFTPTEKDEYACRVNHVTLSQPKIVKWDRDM

This test concerns the target T1, human FcRn (His-tagged alpha chain with beta 2 microglobulin) (human, UniProt P55899 24-297; P61769 21-119, limits assumed).
T1 construct: also called hFcRn; not shown: His tag
The test can be described thus: Biacore, human FcRn on chip, pH 6.0. A general note: Surface plasmon resonance follows binding to a sensor surface in real time, without labels.
For B1, the “fold FcRn binding” value came out at 4.9 fold.
In the case of B2, the “fold FcRn binding relative to WT IgG2” value is below 0.5 fold.
Still for that read-out and setting: for B3 the value was below 0.5 fold; for B4, below 0.5 fold.
In the case of B5, the binding result is “binds”.
Consider B6, for which the “fold FcRn binding relative to WT IgG2” value is below 0.5 fold.
Still for that read-out and setting: for B7 the value was below 0.5 fold; for B8, below 0.5 fold.
Regarding B9, the “fold FcRn binding” value worked out at 14.8 fold.
